Experimental data: patent publication US11673916B2, “Neuroprotective peptides and methods of their use” (University of Pittsburgh—Of the Commonwealth System of …, priority 2020, dated 2023)

Biological target: T1, Kv2.1 surface clusters (Rattus norvegicus, UniProt P15387)
T1 construct: expressed in transfected cells; host or cells: primary rat cortical neurons (E16-17 Sprague-Dawley), Lipofectamine 2000
T1 sequence (P15387 1-857): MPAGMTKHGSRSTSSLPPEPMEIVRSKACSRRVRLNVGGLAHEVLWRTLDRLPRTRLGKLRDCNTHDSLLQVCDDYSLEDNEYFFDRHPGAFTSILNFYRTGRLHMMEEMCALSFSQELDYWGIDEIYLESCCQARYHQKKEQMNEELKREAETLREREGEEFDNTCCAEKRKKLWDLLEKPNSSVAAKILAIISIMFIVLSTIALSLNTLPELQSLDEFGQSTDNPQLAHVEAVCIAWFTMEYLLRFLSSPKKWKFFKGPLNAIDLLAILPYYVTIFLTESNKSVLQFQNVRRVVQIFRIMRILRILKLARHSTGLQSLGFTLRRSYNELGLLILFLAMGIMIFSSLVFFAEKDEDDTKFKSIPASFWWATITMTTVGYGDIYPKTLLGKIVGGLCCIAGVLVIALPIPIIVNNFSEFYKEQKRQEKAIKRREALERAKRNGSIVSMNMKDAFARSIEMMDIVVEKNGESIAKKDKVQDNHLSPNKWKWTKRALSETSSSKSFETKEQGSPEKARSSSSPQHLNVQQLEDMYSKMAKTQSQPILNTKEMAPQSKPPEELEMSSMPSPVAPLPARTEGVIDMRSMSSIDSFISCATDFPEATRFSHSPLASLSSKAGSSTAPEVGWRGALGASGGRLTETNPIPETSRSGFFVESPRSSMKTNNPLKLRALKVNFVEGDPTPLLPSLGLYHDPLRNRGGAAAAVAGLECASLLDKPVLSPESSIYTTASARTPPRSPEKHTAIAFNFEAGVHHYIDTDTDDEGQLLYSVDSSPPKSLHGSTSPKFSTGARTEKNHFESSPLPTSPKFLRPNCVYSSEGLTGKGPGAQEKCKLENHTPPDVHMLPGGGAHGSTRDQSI
Test: Kv2.1 surface cluster density in live Kv2.1-GFP-transfected cortical neurons treated with TAT-linked peptides
Type: cell-based
Settings: 10 μM, two-hour treatment, mean±SEM (FIG. 12B)
Method: In vitro experiments utilized primary cortical neuronal cultures prepared from embryonic day 16-17 Sprague-Dawley rats of either sex in a protocol described previously (McCord et al., J Physiol (Lond). 592: 3511-3521, 2014). Timed-pregnant rats (Charles River Laboratories, Wilmington, Mass.) were sacrificed by CO2 inhalation. Embryonic cortices were dissociated with trypsin (0.6 mg/mL) and cells plated in sterile 6-well plates on poly-L-ornithine-coated glass coverslips at a density of 670,000 cells per well. Cytosine arabinoside (1-2 μM) was utilized to inhibit non-neuronal proliferation on day 14 in vitro (DIV); cultures were utilized at 21-25 DIV.
; Invitrogen, Carlsbad, Calif.). […]
To analyze Kv2.1 distribution in live primary cortical neurons, cells were transfected with both a tdTomato construct and a GFP-tagged Kv2.1 construct (O'Connell, et al., J Neurosci. 26: 9609-9618, 2006) and imaged on a Nikon A1+ confocal microscope (Nikon, Tokyo, Japan). […] For live images of transfected neurons, object count parameters were customized to define a Kv2.1 cluster as an area of high intensity GFP fluorescence (compared to background), measuring 0.05 μm^2 or larger (Schulien et al., J Physiol (Lond). 594: 2647-2659, 2016). Kv2.1 cluster density was calculated by normalizing the number of Kv2.1 clusters counted to the somatic area of each neuron (#Kv2.1 clusters/μm^2). […]

In the case of “YGRKKRRQRRRAIDAFTA [TAT-DP-2A, TAT-linked serine to alanine mutant of DP-2]”, the “mean Kv2.1 surface cluster density” value is reported as 0.14±0.02 #Kv2.1 clusters/μm^2 of neuronal soma.
“YGRKKRRQRRRDIDDFTD [TAT-DP-2D, TAT-linked peptide containing serine to aspartate mutations]” was tested, and the “mean Kv2.1 surface cluster density” value was 0.08±0.02 #Kv2.1 clusters/μm^2 of neuronal soma.
